# Reference: publication doi:10.1101/2024.02.18.580885 (bioRxiv, 2024)
# Biological target: the molecule itself
# Assay: dynamic light scattering
protein,measurement,value
"TFIP11 N-TER (N-terminal region of Tuftelin Interacting Protein 11) (domain or fragment, human, UniProt Q9UBB9 1-350, looked up) MSLSHLYRDGEGRIDDDDDERENFEITDWDLQNEFNPNRQRHWQTKEEATYGVWAERDSDDERPSFGGKRARDYSAPVNFISAGLKKGAAEEAELEDSDDEEKPVKQDDFPKDFGPRKLKTGGNFKPSQKGFAGGTKSFMDFGSWERHTKGIGQKLLQKMGYVPGRGLGKNAQGIINPIEAKQRKGKGAVGAYGSERTTQSMQDFPVVDSEEEAEEEFQKELSQWRKDPSGSKKKPKYSYKTVEELKAKGRISKKLTAPQKELSQVKVIDMTGREQKVYYSYSQISHKHNVPDDGLPLQSQQLPQSGKEAKAPGFALPELEHNLQLLIDLTEQEIIQNDRQLQYERDMVV",binding result,binds
